In patent US9675789B2, “Embeddable micro-needle patch for transdermal drug delivery and method of manufacturing the same” (NATIONAL CHENG KUNG UNIVERSITY, priority 2012, dated 2017):

System: IgG antibodies induced by ovalbumin
Experiment: immunity test: IgG antibodies induced by ovalbumin in blood serum, ELISA 450 nm absorbance
Format: in vivo, sprague dawley (SD) rats
Details: SD rats, 1 mg ovalbumin at zero and fourteenth day, seventh day
Description: In another aspect of the embodiment, sprague dawley (SD) rats having four to six weeks of age are divided into three groups. Immune response is induced at zero day and fourteenth days by respectively encapsulating 1 mg of ovalbumin in the embeddable micro-needle patch for transdermal drug delivery, injecting saline in muscles, and injecting 1 mg of ovalbumin solution in muscles so as to produce correspondingly IgG antibodies, and blood is drawn from venous sinus under collarbones of the rats at zero day, seventh day, fourteenth day and twenty-first day. The drawn blood is detected by ELISA (enzyme-linked immunosorbent assay) to obtain 450 nm absorbance such that the contents of IgG antibodies antibody induced by ovalbumin in blood serum are determined.

B1: ovalbumin (protein, UniProt P01012 2-386, looked up)
Ovalbumin: GSIGAASMEFCFDVFKELKVHHANENIFYCPIAIMSALAMVYLGAKDSTRTQINKVVRFDKLPGFGDSIEAQCGTSVNVHSSLRDILNQITKPNDVYSFSLASRLYAEERYPILPEYLQCVKELYRGGLEPINFQTAADQARELINSWVESQTNGIIRNVLQPSSVDSQTAMVLVNAIVFKGLWEKAFKDEDTQAMPFRVTEQESKPVQMMYQIGLFRVASMASEKMKILELPFASGTMSMLVLLPDEVSGLEQLESIINFEKLTEWTSSNVMEERKIKVYLPRMKMEEKYNLTSVLMAMGITDVFSSSANLSGISSAESLKISQAVHAAHAEINEAGREVVGSAEAGVDAASVSEEFRADHPFLFCIKHIATNAVLFFGRCVSP
notes: 1 mg of ovalbumin solution injected in muscles, conventional muscle injection comparison group
- expression of induced IgG antibodies in blood serum compared with saline control group: can be discovered
